# Test results: patent US20140087995A1 (published 2014)
# Numbered stars: 1 amine (or outer) side, 2 acyl side, 3 side chain; on linkers, the order of the positions; unused ones are H or OH. Bridge positions count the residues as written; N and C are the ends. Side chains are listed from the residue outwards. Ends that are not written are not given here. * marks the point of attachment. C20 diacid = O=C(O)CCCCCCCCCCCCCCCCCCC(=O)*; γGlu = O=C(O)[C@H](CCC(=O)[*:2])N[*:1]; AEEA = NCCOCCOCC(=O)O
# T1: human amylin receptor (human, UniProt P30988 25-474; O60896 24-148, limits assumed)
# T1 construct: whole, on cells; Calcitonin receptor plus RAMP-3 gives the amylin 3(a) receptor; membranes of Amylin 3(a)/CRE-luc cells were used; also called hAmylin-R; hAmylinR
# T1 sequence (looked up) 1: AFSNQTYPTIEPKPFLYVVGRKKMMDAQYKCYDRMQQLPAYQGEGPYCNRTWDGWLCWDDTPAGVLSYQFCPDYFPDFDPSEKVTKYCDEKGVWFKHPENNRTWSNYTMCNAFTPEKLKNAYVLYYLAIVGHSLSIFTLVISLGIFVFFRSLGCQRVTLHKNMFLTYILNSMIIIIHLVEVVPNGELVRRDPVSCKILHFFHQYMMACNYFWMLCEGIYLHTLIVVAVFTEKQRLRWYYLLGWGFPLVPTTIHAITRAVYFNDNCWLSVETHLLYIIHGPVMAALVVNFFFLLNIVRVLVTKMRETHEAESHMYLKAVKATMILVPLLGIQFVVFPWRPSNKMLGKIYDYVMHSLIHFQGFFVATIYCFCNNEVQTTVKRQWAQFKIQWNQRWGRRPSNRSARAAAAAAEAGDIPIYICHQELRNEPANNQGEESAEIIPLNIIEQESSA
# T1 sequence (looked up) 2: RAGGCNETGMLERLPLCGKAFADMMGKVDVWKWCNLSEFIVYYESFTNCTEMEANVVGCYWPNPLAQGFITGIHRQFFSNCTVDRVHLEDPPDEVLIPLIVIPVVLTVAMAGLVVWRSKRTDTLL
# Target: T1, human amylin receptor
# Experiment: SPA competition binding, displacement of 125I-rat amylin from membranes with human amylin 3(a) receptor (Assay V)
# Method in brief: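 SPA beads with BHK Amylin 3(a)/CRE-luc cell membranes (35 ng/μL final) in 50 mM Hepes pH 7.4, 1 mM CaCl2, 5 mM MgCl₂, 0.1% OA, 0.02% Tween20.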
row,Binder,IC50 [pM]
1,"K([AEEA-AEEA-γGlu-C20 diacid])CNTATCATQRLANFLRHSSPNFGAIPSSTNVGPNTY-NH2 (disulfide 2-7; N-terminus assumed; SMILES CC[C@H](C)[C@H](NC(=O)[C@H](C)NC(=O)CNC(=O)[C@H](Cc1ccccc1)NC(=O)[C@H](CC(N)=O)NC(=O)[C@@H]1CCCN1C(=O)[C@H](CO)NC(=O)[C@H](CO)NC(=O)[C@H](Cc1c[nH]cn1)NC(=O)[C@H](CCCNC(=N)N)NC(=O)[C@H](CC(C)C)NC(=O)[C@H](Cc1ccccc1)NC(=O)[C@H](CC(N)=O)NC(=O)[C@H](C)NC(=O)[C@H](CC(C)C)NC(=O)[C@H](CCCNC(=N)N)NC(=O)[C@H](CCC(N)=O)NC(=O)[C@@H](NC(=O)[C@H](C)NC(=O)[C@@H]1CSSC[C@H](NC(=O)[C@@H](N)CCCCNC(=O)COCCOCCNC(=O)COCCOCCNC(=O)CC[C@H](NC(=O)CCCCCCCCCCCCCCCCCCC(=O)O)C(=O)O)C(=O)N[C@@H](CC(N)=O)C(=O)N[C@@H]([C@@H](C)O)C(=O)N[C@@H](C)C(=O)N[C@@H]([C@@H](C)O)C(=O)N1)[C@@H](C)O)C(=O)N1CCC[C@H]1C(=O)N[C@@H](CO)C(=O)N[C@@H](CO)C(=O)N[C@H](C(=O)N[C@@H](CC(N)=O)C(=O)N[C@H](C(=O)NCC(=O)N1CCC[C@H]1C(=O)N[C@@H](CC(N)=O)C(=O)N[C@H](C(=O)N[C@@H](Cc1ccc(O)cc1)C(N)=O)[C@@H](C)O)C(C)C)[C@@H](C)O, also called 17R, 21P, 27P, 34P)",91
2,"K([AEEA-γGlu-C20 diacid])CNTATCATQRLANFLRHSSPNFGAIPSSTNVGRNTY-NH2 (disulfide 2-7; N-terminus assumed; SMILES CC[C@H](C)[C@H](NC(=O)[C@H](C)NC(=O)CNC(=O)[C@H](Cc1ccccc1)NC(=O)[C@H](CC(N)=O)NC(=O)[C@@H]1CCCN1C(=O)[C@H](CO)NC(=O)[C@H](CO)NC(=O)[C@H](Cc1c[nH]cn1)NC(=O)[C@H](CCCNC(=N)N)NC(=O)[C@H](CC(C)C)NC(=O)[C@H](Cc1ccccc1)NC(=O)[C@H](CC(N)=O)NC(=O)[C@H](C)NC(=O)[C@H](CC(C)C)NC(=O)[C@H](CCCNC(=N)N)NC(=O)[C@H](CCC(N)=O)NC(=O)[C@@H](NC(=O)[C@H](C)NC(=O)[C@@H]1CSSC[C@H](NC(=O)[C@@H](N)CCCCNC(=O)COCCOCCNC(=O)CC[C@H](NC(=O)CCCCCCCCCCCCCCCCCCC(=O)O)C(=O)O)C(=O)N[C@@H](CC(N)=O)C(=O)N[C@@H]([C@@H](C)O)C(=O)N[C@@H](C)C(=O)N[C@@H]([C@@H](C)O)C(=O)N1)[C@@H](C)O)C(=O)N1CCC[C@H]1C(=O)N[C@@H](CO)C(=O)N[C@@H](CO)C(=O)N[C@H](C(=O)N[C@@H](CC(N)=O)C(=O)N[C@H](C(=O)NCC(=O)N[C@@H](CCCNC(=N)N)C(=O)N[C@@H](CC(N)=O)C(=O)N[C@H](C(=O)N[C@@H](Cc1ccc(O)cc1)C(N)=O)[C@@H](C)O)C(C)C)[C@@H](C)O, also called 17R, 21P, 27P, 34R)",602
3,"K([AEEA-γGlu-C20 diacid])CNTATCATQRLARFLRHSSPNFGAIPSSTPVGSNTY-NH2 (disulfide 2-7; N-terminus assumed; SMILES CC[C@H](C)[C@H](NC(=O)[C@H](C)NC(=O)CNC(=O)[C@H](Cc1ccccc1)NC(=O)[C@H](CC(N)=O)NC(=O)[C@@H]1CCCN1C(=O)[C@H](CO)NC(=O)[C@H](CO)NC(=O)[C@H](Cc1c[nH]cn1)NC(=O)[C@H](CCCNC(=N)N)NC(=O)[C@H](CC(C)C)NC(=O)[C@H](Cc1ccccc1)NC(=O)[C@H](CCCNC(=N)N)NC(=O)[C@H](C)NC(=O)[C@H](CC(C)C)NC(=O)[C@H](CCCNC(=N)N)NC(=O)[C@H](CCC(N)=O)NC(=O)[C@@H](NC(=O)[C@H](C)NC(=O)[C@@H]1CSSC[C@H](NC(=O)[C@@H](N)CCCCNC(=O)COCCOCCNC(=O)CC[C@H](NC(=O)CCCCCCCCCCCCCCCCCCC(=O)O)C(=O)O)C(=O)N[C@@H](CC(N)=O)C(=O)N[C@@H]([C@@H](C)O)C(=O)N[C@@H](C)C(=O)N[C@@H]([C@@H](C)O)C(=O)N1)[C@@H](C)O)C(=O)N1CCC[C@H]1C(=O)N[C@@H](CO)C(=O)N[C@@H](CO)C(=O)N[C@H](C(=O)N1CCC[C@H]1C(=O)N[C@H](C(=O)NCC(=O)N[C@@H](CO)C(=O)N[C@@H](CC(N)=O)C(=O)N[C@H](C(=O)N[C@@H](Cc1ccc(O)cc1)C(N)=O)[C@@H](C)O)C(C)C)[C@@H](C)O, also called 14R, 17R, 21P, 27P, 31P)",444
4,"K([AEEA-γGlu-C20 diacid])CNTATCATQRLAAFLRHSSPNFGAIPSSTPVGSNTY-NH2 (disulfide 2-7; N-terminus assumed; SMILES CC[C@H](C)[C@H](NC(=O)[C@H](C)NC(=O)CNC(=O)[C@H](Cc1ccccc1)NC(=O)[C@H](CC(N)=O)NC(=O)[C@@H]1CCCN1C(=O)[C@H](CO)NC(=O)[C@H](CO)NC(=O)[C@H](Cc1c[nH]cn1)NC(=O)[C@H](CCCNC(=N)N)NC(=O)[C@H](CC(C)C)NC(=O)[C@H](Cc1ccccc1)NC(=O)[C@H](C)NC(=O)[C@H](C)NC(=O)[C@H](CC(C)C)NC(=O)[C@H](CCCNC(=N)N)NC(=O)[C@H](CCC(N)=O)NC(=O)[C@@H](NC(=O)[C@H](C)NC(=O)[C@@H]1CSSC[C@H](NC(=O)[C@@H](N)CCCCNC(=O)COCCOCCNC(=O)CC[C@H](NC(=O)CCCCCCCCCCCCCCCCCCC(=O)O)C(=O)O)C(=O)N[C@@H](CC(N)=O)C(=O)N[C@@H]([C@@H](C)O)C(=O)N[C@@H](C)C(=O)N[C@@H]([C@@H](C)O)C(=O)N1)[C@@H](C)O)C(=O)N1CCC[C@H]1C(=O)N[C@@H](CO)C(=O)N[C@@H](CO)C(=O)N[C@H](C(=O)N1CCC[C@H]1C(=O)N[C@H](C(=O)NCC(=O)N[C@@H](CO)C(=O)N[C@@H](CC(N)=O)C(=O)N[C@H](C(=O)N[C@@H](Cc1ccc(O)cc1)C(N)=O)[C@@H](C)O)C(C)C)[C@@H](C)O, also called 14A, 17R, 21P, 27P, 31P)",172

# Continued by falling IC50, values first:
row,IC50 [pM],Binder
1,636,"K([AEEA-γGlu-C20 diacid])CNTATCATQRLARFLRHSSPNFGAIPSSTNVGSNTY-NH2 (disulfide 2-7; N-terminus assumed; SMILES CC[C@H](C)[C@H](NC(=O)[C@H](C)NC(=O)CNC(=O)[C@H](Cc1ccccc1)NC(=O)[C@H](CC(N)=O)NC(=O)[C@@H]1CCCN1C(=O)[C@H](CO)NC(=O)[C@H](CO)NC(=O)[C@H](Cc1c[nH]cn1)NC(=O)[C@H](CCCNC(=N)N)NC(=O)[C@H](CC(C)C)NC(=O)[C@H](Cc1ccccc1)NC(=O)[C@H](CCCNC(=N)N)NC(=O)[C@H](C)NC(=O)[C@H](CC(C)C)NC(=O)[C@H](CCCNC(=N)N)NC(=O)[C@H](CCC(N)=O)NC(=O)[C@@H](NC(=O)[C@H](C)NC(=O)[C@@H]1CSSC[C@H](NC(=O)[C@@H](N)CCCCNC(=O)COCCOCCNC(=O)CC[C@H](NC(=O)CCCCCCCCCCCCCCCCCCC(=O)O)C(=O)O)C(=O)N[C@@H](CC(N)=O)C(=O)N[C@@H]([C@@H](C)O)C(=O)N[C@@H](C)C(=O)N[C@@H]([C@@H](C)O)C(=O)N1)[C@@H](C)O)C(=O)N1CCC[C@H]1C(=O)N[C@@H](CO)C(=O)N[C@@H](CO)C(=O)N[C@H](C(=O)N[C@@H](CC(N)=O)C(=O)N[C@H](C(=O)NCC(=O)N[C@@H](CO)C(=O)N[C@@H](CC(N)=O)C(=O)N[C@H](C(=O)N[C@@H](Cc1ccc(O)cc1)C(N)=O)[C@@H](C)O)C(C)C)[C@@H](C)O, also called 14R, 17R, 21P, 27P)"
2,249,"K([AEEA-γGlu-C20 diacid])CNTATCATQRLANFLRHSSPNFGAIPSSTNVGSRTY-NH2 (disulfide 2-7; N-terminus assumed; SMILES CC[C@H](C)[C@H](NC(=O)[C@H](C)NC(=O)CNC(=O)[C@H](Cc1ccccc1)NC(=O)[C@H](CC(N)=O)NC(=O)[C@@H]1CCCN1C(=O)[C@H](CO)NC(=O)[C@H](CO)NC(=O)[C@H](Cc1c[nH]cn1)NC(=O)[C@H](CCCNC(=N)N)NC(=O)[C@H](CC(C)C)NC(=O)[C@H](Cc1ccccc1)NC(=O)[C@H](CC(N)=O)NC(=O)[C@H](C)NC(=O)[C@H](CC(C)C)NC(=O)[C@H](CCCNC(=N)N)NC(=O)[C@H](CCC(N)=O)NC(=O)[C@@H](NC(=O)[C@H](C)NC(=O)[C@@H]1CSSC[C@H](NC(=O)[C@@H](N)CCCCNC(=O)COCCOCCNC(=O)CC[C@H](NC(=O)CCCCCCCCCCCCCCCCCCC(=O)O)C(=O)O)C(=O)N[C@@H](CC(N)=O)C(=O)N[C@@H]([C@@H](C)O)C(=O)N[C@@H](C)C(=O)N[C@@H]([C@@H](C)O)C(=O)N1)[C@@H](C)O)C(=O)N1CCC[C@H]1C(=O)N[C@@H](CO)C(=O)N[C@@H](CO)C(=O)N[C@H](C(=O)N[C@@H](CC(N)=O)C(=O)N[C@H](C(=O)NCC(=O)N[C@@H](CO)C(=O)N[C@@H](CCCNC(=N)N)C(=O)N[C@H](C(=O)N[C@@H](Cc1ccc(O)cc1)C(N)=O)[C@@H](C)O)C(C)C)[C@@H](C)O, also called 17R, 21P, 27P, 35R)"
